Numbering of substitutions follows the chain as printed. One block for each binder: values may come before it.
Columns and labels:
[1] = biological target: CD3 on Jurkat-Lucia NFAT reporter T lymphocytes (UniProt P07766 23-207); test: cell-based or functional assay
[2] = biological target: T1, CD79b on malignant B cell lines (BJAB, Daudi, SUDHL-4, Nalm-6) (UniProt P40259 29-229, limits assumed); test: flow cytometry (MFI of PE) on BJAB cells
T1 construct: whole, on cells; also called malignant B cells
T1 sequence (looked up): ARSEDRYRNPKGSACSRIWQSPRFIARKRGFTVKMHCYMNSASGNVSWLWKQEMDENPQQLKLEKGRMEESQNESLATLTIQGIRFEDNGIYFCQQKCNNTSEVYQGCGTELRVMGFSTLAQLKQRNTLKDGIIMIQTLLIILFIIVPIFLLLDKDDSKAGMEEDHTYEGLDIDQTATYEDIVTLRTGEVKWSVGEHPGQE
Method: (§1) To evaluated the affinities of chCD79b×msnCD3 antibodies to malignant B cell lines. BJAB, Daudi, SUDHL-4 and Nalm-6 cells were purchased from ATCC. For each different cell line, 5×10⁴ cells were mixed with serially diluted antibodies Pola/msnCD3, 22D10/msnCD3, 44G2/msnCD3, 48H10/msnCD3 and 57B9/msnCD3, Mosunetuzumab, and negative control Human IgG Isotype Control (Invitrogen Catalog #02-7102) and incubated on ice for 30 minutes. After incubation, cells were washed twice and detected with an anti-human IgG PE secondary antibody (ebioscience. Cat: 12-4998-82). For analysis, the mean fluorescence intensity (MFI of PE) of each antibody was determined and plotted using GraphPad prism software (version 10.10.1; GraphPad Software Inc).

[3] = biological target: T1, CD79b on malignant B cell lines (BJAB, …); test: flow cytometry (MFI of PE) on Daudi cells
Method: as §1

[4] = biological target: T1, CD79b on malignant B cell lines (BJAB, …); test: flow cytometry (MFI of PE) on SUDHL-4 cells
Method: as §1

[5] = biological target: T1, CD79b on malignant B cell lines (BJAB, …); test: flow cytometry (MFI of PE) on Nalm-6 cells
Method: as §1

[6] = biological target: T2, antigen on malignant B cell lines (BJAB, Daudi, SUDHL-4, Nalm-6) bound by Mosunetuzumab, not named in the …; test: flow cytometry (MFI of PE) on BJAB cells
T2 chain: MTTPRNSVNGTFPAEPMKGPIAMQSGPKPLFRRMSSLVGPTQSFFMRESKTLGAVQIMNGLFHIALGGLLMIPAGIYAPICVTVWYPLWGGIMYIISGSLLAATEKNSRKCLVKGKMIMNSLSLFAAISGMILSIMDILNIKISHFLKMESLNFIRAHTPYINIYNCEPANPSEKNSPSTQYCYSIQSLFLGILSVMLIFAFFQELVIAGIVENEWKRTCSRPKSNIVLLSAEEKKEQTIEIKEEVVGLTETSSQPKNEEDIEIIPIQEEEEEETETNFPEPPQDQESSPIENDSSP
Method: as §1

[7] = biological target: T2, antigen on malignant B cell lines …; test: flow cytometry (MFI of PE) on Daudi cells
Method: as §1

[8] = biological target: T2, antigen on malignant B cell lines …; test: flow cytometry (MFI of PE) on SUDHL-4 cells
Method: as §1

Sequence of CD3 on Jurkat-Lucia NFAT reporter T lymphocytes (P07766 23-207): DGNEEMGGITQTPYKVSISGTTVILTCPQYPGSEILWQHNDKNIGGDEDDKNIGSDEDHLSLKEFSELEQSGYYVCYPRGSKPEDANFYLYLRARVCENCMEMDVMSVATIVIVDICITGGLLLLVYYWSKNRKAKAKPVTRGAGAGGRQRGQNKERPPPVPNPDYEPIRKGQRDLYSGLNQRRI

B1: Pola/msnCD3 (bispecific antibody, human IgG1, kappa, N297G)
light: DIQLTQSPSSLSASVGDRVTITCKASQSVDYEGDSFLNWYQQKPGKAPKLLIYAASNLESGVPSRFSGSGSGTDFTLTISSLQPEDFATYYCQQSNEDPLTFGQGTKVEIKRTVAAPSVFIFPPSDEQLKSGTASVVCLLNNFYPREAKVQWKVDNALQSGNSQESVTEQDSKDSTYSLSSTLTLSKADYEKHKVYACEVTHQGLSSPVTKSFNRGEC
heavy: EVQLVESGGGLVQPGGSLRLSCAASGYTFSSYWIEWVRQAPGKGLEWIGEILPGGGDTNYNEIFKGRATFSADTSKNTAYLQMNSLRAEDTAVYYCTRRVPIRLDYWGQGTLVTVSSASTKGPSVFPLAPSSKSTSGGTAALGCLVKDYFPEPVTVSWSSGALTSGVHTFPAVLQSSGLYSLSSVVTVPSSSLGTQTYICNVNHKPSNTKVDKKVEPKSCDKTHTCPPCPAPELLGGPSVFLFPPKPKDTLMISRTPEVTCVVVDVSHEDPEVKFNWYVDGVEVHNAKTKPREEQYGSTYRVVSVLTVLHQDWLNGKEYKCKVSNKALPAPIEKTISKAKGQPREPQVYTLPPSRDELTKNQVSLSCAVKGFYPSDIAVEWESNGQPENNYKTTPPVLDSDGSFFLVSKLTVDKSRWQQGNVFSCSVMHEALHNRFTQKSLSLSPGK
chain: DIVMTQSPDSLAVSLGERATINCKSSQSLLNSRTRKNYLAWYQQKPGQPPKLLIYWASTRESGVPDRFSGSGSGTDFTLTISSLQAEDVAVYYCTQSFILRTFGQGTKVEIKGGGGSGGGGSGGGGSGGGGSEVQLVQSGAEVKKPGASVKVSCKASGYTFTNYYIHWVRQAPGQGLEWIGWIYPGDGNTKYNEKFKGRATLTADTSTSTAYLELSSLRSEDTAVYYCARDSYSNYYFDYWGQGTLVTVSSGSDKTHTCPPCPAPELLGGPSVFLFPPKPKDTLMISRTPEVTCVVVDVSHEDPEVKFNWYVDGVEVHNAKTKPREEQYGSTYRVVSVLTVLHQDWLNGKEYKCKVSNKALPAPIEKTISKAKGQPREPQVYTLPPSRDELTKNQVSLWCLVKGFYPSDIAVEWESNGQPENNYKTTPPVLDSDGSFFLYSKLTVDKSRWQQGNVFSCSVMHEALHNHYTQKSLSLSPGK
notes: also called CD79b/CD3 bispecific antibody; chCD79b×msnCD3
T cell activation effect, NFAT-Luc reporter, EC50 nM [1]: ~15.4 nM
EC50 [2]: 18.9 nM
EC50 [3]: 4.04 nM
EC50 [4]: 15.5 nM

B2: 57B9/msnCD3 (bispecific antibody, human IgG1, kappa, N297G)
light: ALVMTQTPSSVSADVGGTVSINCQASEDIESYLAWYQQKPGQPPKLLIYFTSNLASGVPSRFKGSGSGTEYTLTISGVQPDDAATYYCQQGYRNSDVHNPFGGGTEVVVKRTVAAPSVFIFPPSDEQLKSGTASVVCLLNNFYPREAKVQWKVDNALQSGNSQESVTEQDSKDSTYSLSSTLTLSKADYEKHKVYACEVTHQGLSSPVTKSFNRGEC
heavy: QSVRETGGGLVQPGGSLTLSCEASEFTINIDYWISWVRQAPGKGLEWIGIIDPGDGTTYFAIWVNGRFTITRNTNLNTVDLKMTSLTEADTATYFCAREVSASAYQYDLWGPGTLVTVSSASTKGPSVFPLAPSSKSTSGGTAALGCLVKDYFPEPVTVSWSSGALTSGVHTFPAVLQSSGLYSLSSVVTVPSSSLGTQTYICNVNHKPSNTKVDKKVEPKSCDKTHTCPPCPAPELLGGPSVFLFPPKPKDTLMISRTPEVTCVVVDVSHEDPEVKFNWYVDGVEVHNAKTKPREEQYGSTYRVVSVLTVLHQDWLNGKEYKCKVSNKALPAPIEKTISKAKGQPREPQVYTLPPSRDELTKNQVSLSCAVKGFYPSDIAVEWESNGQPENNYKTTPPVLDSDGSFFLVSKLTVDKSRWQQGNVFSCSVMHEALHNRFTQKSLSLSPGK
chain: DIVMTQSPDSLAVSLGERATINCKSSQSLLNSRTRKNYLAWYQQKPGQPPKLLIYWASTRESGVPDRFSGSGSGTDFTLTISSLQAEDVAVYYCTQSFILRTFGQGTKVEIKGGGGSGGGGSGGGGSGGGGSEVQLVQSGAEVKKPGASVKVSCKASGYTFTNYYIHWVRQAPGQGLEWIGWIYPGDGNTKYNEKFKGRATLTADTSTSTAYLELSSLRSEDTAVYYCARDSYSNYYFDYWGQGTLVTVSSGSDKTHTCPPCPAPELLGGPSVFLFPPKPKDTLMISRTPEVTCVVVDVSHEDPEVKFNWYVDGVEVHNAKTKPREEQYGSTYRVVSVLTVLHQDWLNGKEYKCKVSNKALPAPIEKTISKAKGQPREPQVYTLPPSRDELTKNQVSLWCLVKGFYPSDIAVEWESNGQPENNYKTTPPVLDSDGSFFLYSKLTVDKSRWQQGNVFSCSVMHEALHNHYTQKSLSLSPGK
notes: also called 57B9/mscCD3; CD79b/CD3 bispecific antibody
T cell activation effect, NFAT-Luc reporter, EC50 nM [1]: ~24 nM
EC50 [2]: 15.1 nM
EC50 [3]: 4.59 nM
EC50 [5]: 9510 nM
EC50 [4]: 11.9 nM

B3: Mosunetuzumab (bispecific antibody)
chain 1: not shown
chain 2: DIQMTQSPSSLSASVGDRVTITCRASSSVSYMHWYQQKPGKAPKPLIYAPSNLASGVPSRFSGSGSGTDFTLTISSLQPEDFATYYCQQWSFNPPTFGQGTKVEIKRTVAAPSVFIFPPSDEQLKSGTASVVCLLNNFYPREAKVQWKVDNALQSGNSQESVTEQDSKDSTYSLSSTLTLSKADYEKHKVYACEVTHQGLSSPVTKSFNRGEC
chain 3: EVQLVQSGAEVKKPGASVKVSCKASGYTFTNYYIHWVRQAPGQGLEWIGWIYPGDGNTKYNEKFKGRATLTADTSTSTAYLELSSLRSEDTAVYYCARDSYSNYYFDYWGQGTLVTVSSASTKGPSVFPLAPSSKSTSGGTAALGCLVKDYFPEPVTVSWNSGALTSGVHTFPAVLQSSGLYSLSSVVTVPSSSLGTQTYICNVNHKPSNTKVDKKVEPKSCDKTHTCPPCPAPELLGGPSVFLFPPKPKDTLMISRTPEVTCVVVDVSHEDPEVKFNWYVDGVEVHNAKTKPREEQYGSTYRVVSVLTVLHQDWLNGKEYKCKVSNKALPAPIEKTISKAKGQPREPQVYTLPPSREEMTKNQVSLSCAVKGFYPSDIAVEWESNGQPENNYKTTPPVLDSDGSFFLVSKLTVDKSRWQQGNVFSCSVMHEALHNHYTQKSLSLSPGK
chain 4: not shown
T cell activation effect, NFAT-Luc reporter, EC50 nM [1]: 2.06 nM
EC50 [6]: 50.4 nM
EC50 [7]: 13.7 nM
EC50 [8]: 30.6 nM

Continued by falling EC50 [2], values first:

T cell activation effect, NFAT-Luc reporter, EC50 nM [1]: 1.12 nM
EC50 [2]: 4.33 nM
EC50 [3]: 0.614 nM
EC50 [5]: 9.53 nM
EC50 [4]: 1.73 nM
B4: 44G2/msnCD3 (bispecific antibody, human IgG1, kappa, N297G)
light: DLVMTQTPSSVSAAVGGTVSINCRASEDIENYLAWYQQKPGQPPKLLIYRASTLSSGVSSRFSGSGSGTEFTLTISGVQPDDAATYYCQQGYRNSNVDNPFGGGTEMVVKRTVAAPSVFIFPPSDEQLKSGTASVVCLLNNFYPREAKVQWKVDNALQSGNSQESVTEQDSKDSTYSLSSTLTLSKADYEKHKVYACEVTHQGLSSPVTKSFNRGEC
heavy: QSVRETGGGLVQPGGSLKLSCKASGFTINIDYWISWVRQAPGKGLEWIGIIDPGDGTTYFAIWVNGRFTISFDNTQNTVDLQMNSLTAADTATYFCVREFSASAYQYDLWGPGTLVTVSSASTKGPSVFPLAPSSKSTSGGTAALGCLVKDYFPEPVTVSWSSGALTSGVHTFPAVLQSSGLYSLSSVVTVPSSSLGTQTYICNVNHKPSNTKVDKKVEPKSCDKTHTCPPCPAPELLGGPSVFLFPPKPKDTLMISRTPEVTCVVVDVSHEDPEVKFNWYVDGVEVHNAKTKPREEQYGSTYRVVSVLTVLHQDWLNGKEYKCKVSNKALPAPIEKTISKAKGQPREPQVYTLPPSRDELTKNQVSLSCAVKGFYPSDIAVEWESNGQPENNYKTTPPVLDSDGSFFLVSKLTVDKSRWQQGNVFSCSVMHEALHNRFTQKSLSLSPGK
chain: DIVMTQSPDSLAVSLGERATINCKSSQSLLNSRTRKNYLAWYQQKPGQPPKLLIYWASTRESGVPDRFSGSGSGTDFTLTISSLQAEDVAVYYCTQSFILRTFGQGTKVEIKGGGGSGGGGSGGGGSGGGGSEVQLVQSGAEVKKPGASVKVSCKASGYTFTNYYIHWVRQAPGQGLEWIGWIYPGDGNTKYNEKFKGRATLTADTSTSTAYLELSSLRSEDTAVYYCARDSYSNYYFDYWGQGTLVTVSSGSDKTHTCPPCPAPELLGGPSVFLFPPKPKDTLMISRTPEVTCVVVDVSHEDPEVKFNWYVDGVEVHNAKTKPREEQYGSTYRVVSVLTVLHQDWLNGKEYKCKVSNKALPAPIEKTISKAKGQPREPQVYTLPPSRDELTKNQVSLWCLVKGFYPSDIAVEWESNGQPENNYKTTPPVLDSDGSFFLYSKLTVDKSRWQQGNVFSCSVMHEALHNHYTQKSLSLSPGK
notes: as for B1

T cell activation effect, NFAT-Luc reporter, EC50 nM [1]: 1.91 nM
EC50 [2]: 2.88 nM
EC50 [3]: 1.28 nM
EC50 [5]: 19 nM
EC50 [4]: 3.23 nM
B5: 48H10/msnCD3 (bispecific antibody, human IgG1, kappa, N297G)
light: B4 light with D1A, R24Q, N31S, A34T, I48M, G64A, S95K, N96D, M107V
heavy: B4 heavy with R4K, K18T, F72T, T75A, V97A
chain: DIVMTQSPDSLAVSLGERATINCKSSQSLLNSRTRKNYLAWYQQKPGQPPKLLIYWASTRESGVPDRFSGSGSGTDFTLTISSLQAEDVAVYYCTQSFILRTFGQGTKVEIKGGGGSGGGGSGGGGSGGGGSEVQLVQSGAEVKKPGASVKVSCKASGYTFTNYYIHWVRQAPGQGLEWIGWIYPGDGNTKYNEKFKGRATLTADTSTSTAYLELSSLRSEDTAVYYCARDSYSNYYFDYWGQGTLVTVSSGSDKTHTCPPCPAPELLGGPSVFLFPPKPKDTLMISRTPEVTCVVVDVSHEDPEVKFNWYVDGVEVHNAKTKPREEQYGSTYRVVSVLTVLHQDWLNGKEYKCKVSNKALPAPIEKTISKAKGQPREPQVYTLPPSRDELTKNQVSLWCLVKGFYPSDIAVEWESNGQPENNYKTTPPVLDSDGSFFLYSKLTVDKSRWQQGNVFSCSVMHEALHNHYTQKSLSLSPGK
notes: as for B1

T cell activation effect, NFAT-Luc reporter, EC50 nM [1]: 866 nM
EC50 [2]: 1.24 nM
EC50 [3]: 17.1 nM
B6: 22D10/msnCD3 (bispecific antibody, human IgG1, kappa, N297G)
light: ALVMTQTPSSVSAAVGGTVTINCRASEDIERYLAWYQQKPGQRPKLLIYGASTLASGVPSRFKGSGSGTEYTLTISGVQPDDAATYYCHQGDSSRNVVNVFGGGTEVVVKRTVAAPSVFIFPPSDEQLKSGTASVVCLLNNFYPREAKVQWKVDNALQSGNSQESVTEQDSKDSTYSLSSTLTLSKADYEKHKVYACEVTHQGLSSPVTKSFNRGEC
heavy: QSVEESGGRLVTPGTPLTLTCTASGFTINDYHMNWVRQAPGKGLEWIGIISSNGDTYYASWAKGRFTISRTSTTVDLKMTSLTTEDTATYFCARDDRDRSYAFDPWGPGTLVTVSSASTKGPSVFPLAPSSKSTSGGTAALGCLVKDYFPEPVTVSWSSGALTSGVHTFPAVLQSSGLYSLSSVVTVPSSSLGTQTYICNVNHKPSNTKVDKKVEPKSCDKTHTCPPCPAPELLGGPSVFLFPPKPKDTLMISRTPEVTCVVVDVSHEDPEVKFNWYVDGVEVHNAKTKPREEQYGSTYRVVSVLTVLHQDWLNGKEYKCKVSNKALPAPIEKTISKAKGQPREPQVYTLPPSRDELTKNQVSLSCAVKGFYPSDIAVEWESNGQPENNYKTTPPVLDSDGSFFLVSKLTVDKSRWQQGNVFSCSVMHEALHNRFTQKSLSLSPGK
chain: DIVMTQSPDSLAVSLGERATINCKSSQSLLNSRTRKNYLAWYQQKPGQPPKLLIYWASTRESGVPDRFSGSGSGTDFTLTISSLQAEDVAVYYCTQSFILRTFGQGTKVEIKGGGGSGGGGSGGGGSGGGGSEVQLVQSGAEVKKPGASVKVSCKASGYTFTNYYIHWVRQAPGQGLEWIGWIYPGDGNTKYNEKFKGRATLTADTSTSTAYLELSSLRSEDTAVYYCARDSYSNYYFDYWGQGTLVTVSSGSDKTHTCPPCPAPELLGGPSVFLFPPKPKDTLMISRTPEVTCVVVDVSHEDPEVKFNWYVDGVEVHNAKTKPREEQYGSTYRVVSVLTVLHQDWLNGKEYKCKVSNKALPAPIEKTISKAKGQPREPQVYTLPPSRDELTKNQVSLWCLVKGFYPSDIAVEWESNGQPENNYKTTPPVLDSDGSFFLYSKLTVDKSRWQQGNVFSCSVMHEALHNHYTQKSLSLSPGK
notes: as for B1

Source: patent US20250304679A1 (LTZ THERAPEUTICS, published 2025)
